Results: article PMC6458997, “Deciphering the Molecular Mechanism Underpinning Phage Arbitrium Communication Systems” (Molecular Cell, 2019)

B1: unnamed (parent)
chain 1: MELIRIAMKKDLENDNSLMNKWATVAGLKNPNPLYDFLNHDGKTFNEFSSIVNIVKSQYPDREYELMKDYCLNLDVKTKAARSALEYADANMFFEIEDVLIDSMISCSNMKSKEYGKVYKIHRELSNSVITEFEAVKRLGKLNIKTPEMNSFSRLLLLYHYLSTGNFSPMAQLIKQIDLSEISENMYIRNTYQTRVHVLMSNIKLNENSLEECREYSKKALESTNILRFQVFSYLTIGNSLLFSNYELAQENFLKGLSISVQNENYNMIFQQALCFLNNVWRKENKWINFESDSIMDLQEQAHCFINFNENSKAKEVLDKLDLLVHNDNELAMHYYLKGRLEQNKACFYSSIEYFKKSNDKFLIRLPLLELQKMGENQKLLELLLL
chain 2: not shown

Variants of: B1
Assay: thermal shift assay
Settings: with partner chain of the complex shown; AimR + AimP; one of three independent experiments

Variant	screen value [°C]
chain 1 D360A	44.4
chain 1 N202A	50.9
